This note sets out measurements from patent publication US20170015742A1 (published 2017).

First the molecules themselves.
B1: hBEW-9E10.1 (antibody, V domains shown)
VH: EIQLVQSGSELKKPGASVKVSCKASGYTFTNYGMYWVKQAPGQGLEYMGWIDTETGRPTYADDFKGRFVFSLDTSVSTAYLQISSLKAEDTAVYFCARWSGDTTGIRGPWFAYWGQGTLVTVSS
VL: DIRMTQSPSSLSASVGDRVTIECLASEDIYSDLAWYQQKPGKSPKLLIYNANGLQNGVPSRFSGSGSGTDYSLTISSLQPEDVATYFCQQYNYFPGTFGQGTKLEIK
B2: hBEW-9E10.2 (antibody, V domains shown)
VH: EIQLVQSGAEVKKPGSSVKVSCKASGYTFTNYGMYWVKQAPGQGLEYMGWIDTETGRPTYADDFKGRFTFTADKSTSTAYMELSSLRSEDTAVYFCARWSGDTTGIRGPWFAYWGQGTLVTVSS
VL: DIRMTQSPSSLSASVGDRVTIECLASEDIYSDLAWYQQKPGKSPKLLIYNANGLQNGVPSRFSGSGSGTDYSLTISSLQPEDVATYFCQQYNYFPGTFGQGTKLEIK
B3: hBEW-9E10.6 (antibody, V domains shown)
VH: EVQLVQSGAEVKKPGSSVKVSCKASGYTFTNYGMYWVRQAPGQGLEWMGWIDTETGRPTYADDFKGRFTFTADKSTSTAYMELSSLRSEDTAVYYCARWSGDTTGIRGPWFAYWGQGTLVTVSS
VL: DIRMTQSPSSLSASVGDRVTITCLASEDIYSDLAWYQQKPGKSPKLLIYNANGLQNGVPSRFSGSGSGTDYTLTISSLQPEDVATYFCQQYNYFPGTFGQGTKLEIK
B4: hBEW-9E10.5 (antibody, V domains shown)
VH: EIQLVQSGAEVKKPGSSVKVSCKASGYTFTNYGMYWVKQAPGQGLEYMGWIDTETGRPTYADDFKGRFTFTADKSTSTAYMELSSLRSEDTAVYFCARWSGDTTGIRGPWFAYWGQGTLVTVSS
VL: DIRMTQSPSSLSASVGDRVTITCLASEDIYSDLAWYQQKPGKSPKLLIYNANGLQNGVPSRFSGSGSGTDYTLTISSLQPEDVATYFCQQYNYFPGTFGQGTKLEIK
B5: hBEW-9E10.4 (antibody, V domains shown)
VH: EIQLVQSGSELKKPGASVKVSCKASGYTFTNYGMYWVKQAPGQGLEYMGWIDTETGRPTYADDFKGRFVFSLDTSVSTAYLQISSLKAEDTAVYFCARWSGDTTGIRGPWFAYWGQGTLVTVSS
VL: DIRMTQSPSSLSASVGDRVTITCLASEDIYSDLAWYQQKPGKSPKLLIYNANGLQNGVPSRFSGSGSGTDYTLTISSLQPEDVATYFCQQYNYFPGTFGQGTKLEIK
B6: hBEW-9E10.3 (antibody, V domains shown)
VH: EVQLVQSGAEVKKPGSSVKVSCKASGYTFTNYGMYWVRQAPGQGLEWMGWIDTETGRPTYADDFKGRFTFTADKSTSTAYMELSSLRSEDTAVYYCARWSGDTTGIRGPWFAYWGQGTLVTVSS
VL: DIRMTQSPSSLSASVGDRVTIECLASEDIYSDLAWYQQKPGKSPKLLIYNANGLQNGVPSRFSGSGSGTDYSLTISSLQPEDVATYFCQQYNYFPGTFGQGTKLEIK
B7: hBEW-9A8.17 (antibody, V domains shown)
VH: EIQLVQSGSELKKPGASVKVSCKASGYTFTNYGMYWVKQAPGQGLEYMGWINTETGKPIYADDFKGRFVFSLDTSVSTAYLQISSLKAEDTAVYYCARVDYDGSFWFAYWGQGTLVTVSS
VL: ETVLTQSPATLSLSPGERATLSCRASESVSTVIHWYQQKPGQQPRLLIHGASNLESGVPARFSGSGSGTDFTLTISSLEPEDFAVYFCQQHWNDPPTFGQGTKLEIK
B8: hBEW-9A8.21 (antibody, V domains shown)
VH: EIQLVQSGAEVKKPGASVKVSCKASGYTFTNYGMYWVRQAPGQGLEWMGWINTETGKPIYADDFKGRFTFTLDTSTSTAYMELRSLRSDDTAVYYCARVDYDGSFWFAYWGQGTLVTVSS
VL: ETVLTQSPATLSLSPGERATLSCRASESVSTVIHWYQQKPGQQPRLLIHGASNLESGVPARFSGSGSGTDFTLTISSLEPEDFAVYFCQQHWNDPPTFGQGTKLEIK
B9: hBEW-9A8.20 (antibody, V domains shown)
VH: EIQLVQSGAEVKKPGASVKVSCKASGYTFTNYGMYWVKQAPGQGLEYMGWINTETGKPIYADDFKGRFTFTLDTSTSTAYMELRSLRSDDTAVYYCARVDYDGSFWFAYWGQGTLVTVSS
VL: ETVLTQSPATLSLSPGERATLSCRASESVSTVIHWYQQKPGQQPRLLIHGASNLESGVPARFSGSGSGTDFTLTISSLEPEDFAVYFCQQHWNDPPTFGQGTKLEIK
B10: hBEW-5C3.5 (antibody, V domains shown)
VH: EIQLVQSGAEVKKPGSSVKVSCKASGYTFTNYGVYWVKQAPGQGLEYMGWINTETGKPTYADDFKGRFTFTLDKSTSTAYMELSSLRSEDTAVYFCARARQLDWFVYWGQGTLVTVSS
VL: DTQLTQSPSSLSASVGDRVTISCRARESLTTSLSWFQQKPGKQPKLLIYGASKLESGVPSRFSGSGSGTDFTLTISSLQPEDFATYFCQQSWYDPPTFGGGTKVEIK
B11: hBEW-5C3.6 (antibody, V domains shown)
VH: EVQLVQSGAEVKKPGSSVKVSCKASGYTFTNYGVYWVRQAPGQGLEWMGWINTETGKPTYADDFKGRFTFTLDKSTSTAYMELSSLRSEDTAVYYCARARQLDWFVYWGQGTLVTVSS
VL: DTQLTQSPSSLSASVGDRVTISCRARESLTTSLSWFQQKPGKQPKLLIYGASKLESGVPSRFSGSGSGTDFTLTISSLQPEDFATYFCQQSWYDPPTFGGGTKVEIK
B12: chBEW-1B10 (antibody, human IgG1, kappa, L234A L235A, V domains shown)
VH: EVQLVESGGGLVQPGRSLKLSCAASGFSFSKYDMAWFRQTPTKGLEWVASITTSGVGTYYRDSVKGRFTVSRDNAKSTLYLQMDSLRSEDTATYYCARGYGAMDAWGQGTSVTVSS
VL: DIQMTQSPASLSASLEEIVTITCKASQDIDDYLSWYQQKPGKSPQLVIYAATRLADGVPSRFSGSGSGTQYSLKISRLQVDDSGIYYCLQSSSTPWTFGGGTNLELKR
notes: also called chBEW-1B10-B9-C3
B13: chBEW-1E3 (antibody, human IgG1, kappa, L234A L235A, V domains shown)
VH: QIQLVQSGPELKKPGESVKISCKASGYPFTNSGMYWVKQAPGQGLQYMGWINTEAGKPTYADDFKGRFVFFLETSASTAYLQINNLKNEDMATYFCARWGYISDNSYGWFDYWGQGTLVTVSS
VL: DTVLTQSPALAVSPGERVSISCRASEGVYSYMHWYQQNPGQQPKLLIYKASNLASGVPARFSGSGSGTDFTLTIDPVEADDTATYFCHQNWNDPLTFGSGTKLEIKR
notes: also called chBEW-1E3-D6
B14: chBEW-8E6 (antibody, human IgG1, kappa, L234A L235A, V domains shown)
VH: QIQLVQSGPELKKPGESVKISCKASGYTFTDYAMHWVKQAPGKVLKWMGWINTFTGKPTYIDDFKGRFVFSLEASASTANLQISDLKNEDTATYFCARGNYYSGYWYFDFWGPGTMVTMSS
VL: DIQMTQSPASLSASLGETISIECRASEDISSNLAWYQQKSGKSPQLLIFAANRLQDGVPSRFSGSGSGTQFSLKISGMQPEDEGDYFCLQGSKFYTFGAGTKLELKR
notes: also called chBEW-8E6-E4
B15: chBEW-1B4 (antibody, human IgG1, kappa, L234A L235A, V domains shown)
VH: QIQLVQSGPELKKPGESVKISCKASGYSFTNYGMYWVKQAPGQGLQYMGWIDTETGKPTYTDDFKGRFVFFLETSASTAYLQINNLKNEDMATYFCARWSGDTAGIRGPWFAYWGQGTLVTVSS
VL: DIRMTQSPASLSASLGETVNIECLASEDIYSDLAWYQQKPGKSPQLLIYNANDLQKGVPSRFSGSGSGTQYSLKINSLQSEDVATYFCQQYNYYPGTFGAGTKLELKR
notes: also called chBEW-1B4-C4
B16: chBEW-3A1 (antibody, human IgG1, kappa, L234A L235A, V domains shown)
VH: QVQLEQSGAELVKPGTSVKLSCMASGYTSSSNHMNWMKQTTGQGLEWIGIINPGSGGTRYNVKFEGKATLTVDKSSSTAFMQLNSLTPEDSAVYYCARAGFPGPFSYYAMGAWGQGTSVTVSS
VL: DIQMTQSPPVLSASVGDRVTLSCKASQNIHNNLDWYQQKHGEAPKLLIFYTNNLQTGIPSRFSGSGSGTDYTLTISSLQPEDVATYYCYQYNSGYTFGAGTKLELKR
notes: also called chBEW-3A1-D10-G9
B17: chBED-4G10-C8 (antibody, human IgG1, kappa, L234A L235A, V domains shown)
VH: QVQLQQSGTELVKPGSSVKISCKASGYTFTSNYMHWIRQQPGNGLEWIGWIYPGDGDTNYNHNFNGKATLTADKSSSTAYMQLSSLTSEDFAVYFCASSTRAIPGWFTYWGQGTLVTVSS
VL: DTVLTQSPALAVSPGERVSISCWASESVSTLMHWYQQKLGQQPKLLIYGASNLESGVPARFRGSGSGTDFTLTIDPVEADDTATYFCQQSWSDPYTFGAGTKLELKR
B18: chBEW-5C3 (antibody, human IgG1, kappa, L234A L235A, V domains shown)
VH: QIQLVQSGPELKKPGESVKISCKASGYTFTNYGVYWVKQAPGQGLQYMGWINTETGKPTYADDFKGRFVFFLETSTNTAYLQINNLKNEDMATFFCARARQLDWFVYWGQGTLVTVSS
VL: DTVLTQSPALTVSPGERVSISCRARESLTTSLCWFQQKPGQQPKLLIYGASKLESGVPARFSGSGSGTDFTLTIDPVEADDTATYFCQQSWYDPPTFGGGTKLELKR
notes: also called chBEW-5C3-E7

One test addresses Human VEGF-A 165 (human, UniProt P15692 207-395). The test is described as follows: cell-based or functional assay.
Target sequence in this assay (P15692 other isoform, or with tags, fused parts or gaps limits assumed): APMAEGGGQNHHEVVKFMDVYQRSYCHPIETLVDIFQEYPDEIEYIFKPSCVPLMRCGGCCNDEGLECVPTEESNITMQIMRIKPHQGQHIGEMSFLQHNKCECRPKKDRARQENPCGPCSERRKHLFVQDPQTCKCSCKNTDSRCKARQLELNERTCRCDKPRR
Turning to B1, the “hVEGF165 IC50 (nM), HMVEC-d proliferation” value (shortened to “hVEGF165 IC50 (nM)”) was determined as 0.064 nM.

For the molecule B2, the “hVEGF165 IC50 (nM)” value was 0.181 nM.

Regarding B3, the “hVEGF165 IC50 (nM)” value turned out to be 0.068 nM.

Take B4: the “hVEGF165 IC50 (nM)” value amounted to 0.229 nM.

B5: the “hVEGF165 IC50 (nM)” value turned out to be 0.071 nM.

B6: the “hVEGF165 IC50 (nM)” value turned out to be 0.062 nM.

On to B7, for which the “hVEGF165 IC50 (nM)” value came to 0.059 nM.

Take B8: the “hVEGF165 IC50 (nM)” value amounted to 0.09 nM.

On to B9, for which the “hVEGF165 IC50 (nM)” value is 0.064 nM.

B10: the “hVEGF165 IC50 (nM)” value is 0.123 nM.

B11: the “hVEGF165 IC50 (nM)” value was greater than 2 nM.

The next test addresses T1, Human VEGF-A 165 (human, UniProt P15692 207-395).
T1 construct: Recombinant human VEGF165; also called huVEGF-A165; hVEGF165
Kind of test: SPR (Biacore), antibody captured by anti-human Fc, hVEGF165 as analyte. On the procedure:
For example, approximately 9000 RU of goat anti-human Fc specific polyclonal antibody (Thermo Fisher Scientific Inc., Rockford, Ill.) diluted in 10 mM sodium acetate (pH 4.5) is directly immobilized across a CM5 research grade biosensor chip using a standard amine coupling kit according to manufacturer's instructions and procedures at 25 μg/ml. Unreacted moieties on the biosensor surface were blocked with ethanolamine. For kinetic analysis, rate equations derived from the 1:1 Langmuir binding model were fitted simultaneously to multiple antigen injections (using global fit analysis) with the use of Scrubber 2 (BioLogic Software), Biacore Biaevaluation 4.0.1 software or Biacore T100 Evaluation software. Purified antibodies or DVD-Ig molecules were diluted in running buffer for capture across goat anti-human Fc reaction surfaces. Antibodies or DVD-Ig molecules to be captured as a ligand (1 μg/ml) were injected over reaction matrices at a flow rate of 10 μl/minute. During the assay, all measurements were referenced against the capture surface alone (i.e., with no captured antibody or DVD-Ig molecule). […] The equilibrium dissociation constant KD (M) of the reaction between antibodies and the target antigen was then calculated from the kinetic rate constants by the following formula: KD=Koff/Kₒₙ. Binding was recorded as a function of time and kinetic rate constants were calculated.
T1 sequence (P15692 other isoform, or with tags, fused parts or gaps): as the sequence (P15692 other isoform, or with tags, fused parts or gaps limits assumed) above
As for B12, the Kd (in general, the equilibrium constant for the complex coming apart) came to 0.0094 nM and the kon – broadly, the rate constant with which the complex forms – amounted to 5.5e+06 M⁻¹ s⁻¹.

As for B13, the Kd was 0.011 nM and the kon is 7.2e+06 M⁻¹ s⁻¹.

The molecule B14 gave a Kd of 0.016 nM and a kon of 6.2e+06 M⁻¹ s⁻¹.

Molecule B15 had a Kd of 0.011 nM and a kon of 1.1e+07 M⁻¹ s⁻¹.

The molecule B16 showed a Kd of 0.023 nM and a kon of 3.5e+07 M⁻¹ s⁻¹.

On to B17, for which binding was characterised by a dissociation constant (Kd) of 0.59 nM and the kon came out at 1e+07 M⁻¹ s⁻¹.

B18 came in with a Kd of 0.012 nM and a kon of 6.8e+06 M⁻¹ s⁻¹.
